Reference: the NTF2 design screens of Basanta et al. (2020)

Experiment: protease stability score; higher = more stable; yeast display proteolysis, trypsin and chymotrypsin;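 also: log10 excess protease needed over predicted unfolded state with 0 meaning unfolded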

Sequence	protease stability score
EEEANKHLRQWWRNFRKGSEEKMKNLMDPNVRVVVGDKVYSGREQVMKMVRDQLTHARFDFDLERLSAHNGKIDITMKLVADINGKPVKVHVKADVQYSNGRIESIVLHVDPDQQRKLTE	2.19
DDDEIRRLAKRVVKALHDGDPDEMMRLADENAKIDVGDHRIRGREQLRDFVKQLTEDVDHIRIHDYRVTPNHARVVVVVDHNGQKSTFVVEAHMDNGTIKSMRFHER	0.462
DHKLHHQLHRLIKALQTGDPDKIRELVDPNVEFVVGEKRYKGREDYVTDFKERLDHIRLDNDVRDVEVHGNKMRANIQTEVQDDGQPRTYQVRLDASAHNGKVKSLKVDKKP	-0.059
DEELRKNFHTFLELMKNGNPEKLAEMADPNVRVNIGDEQLRGKHRLHQHARHLKHSLRFDYQSVDVKVTGNRVDANLRVVVKVNGKPIDYTVKIHITWRNGKIKTMEIKIPEDDQKKMRR	-0.089
DEEELQEMIHEFVKALETGNPDDIDKNADEDAKAVYGDKEVEGREQIKHQIKQLHDAIDHLEVKRVSFDNGRAHIHVEMTVNGERFTAKITVEAHNGKIKDVQFDPRLRNAYES	0.81
DNDKLAKDAVDTMDEVLQDGDEKKLNDLFDPNARLRVGDHEIHGREQIHDWIKTRLNQIDHIEMRIVHVRREGEKALARVTFVNQHNGKQDEREAVYRFTVENGRATFEEVNIK	-0.116
DEKRYKELFETVFKMVINGDEEDVKKIINPNGKYQYGDKEFEGPEVAHELVRVVKEMGAEVKETRYEVNGDTARADFKYINGDQEVTTTAEAVYKGDKMEEARVHISEEVKKVLHQG	-0.143
DEEHQKKMAEDFVKALERGDKDQFHSLFDENAKMQYGDKTVHGREDVKRWVEHVKERVDHLKVDKIEVSGNKVVLKMVINVDGQRLDMVITIHLHNGHIQSAEARVTDPDQERKANS	1.26
DEELLKELLKYLKVREHGDKDKFERMADPNAKIHVGDREVHGREHLAKEIKTEKEEMEVSVDRYTQRVNGDKARLKVDFKVEHNGKPERRAHVLVMHTHNGKIKSLKAQDTD	-0.111
DDEKQHTIAKQLVEVLQQNDPDQQRDMVDENANIDIGDKTYQGQEDARKAMDELRRQIDHLTVTSFNVHNGRVEIRARARVNGTDVTVHIEAQLHNGRVKKMKIKYG	-0.196
DEKIVQAMKRYMDARQKGDPEDFNNLVDPNVRLNVGDKRVHGRERISEQIQREQRKMRIEIKHVEFRDQGEKVQLRVKYVVEINGRPRHASQRMEASLDDGKIKSIEIRVDEEVKKIEKV	-0.088
DEHTERTLSRLVKRNDEKTMADRADENARAEYGDTTYHGKEEFKKWVNKMEERVDHRDLKEIRVHGNKIKVKMDQEVNGRRVEMEFEAHYHNGRLKFEVMKVRDEEQKEQLKQQQT	-0.09
DDDAARQFEEVMKAVEHGDPHQVEELVDPNATFNVGDKRWHGMRENMQEHISRFQSINMTVEIKRVEDTNGRAKFEASVTRNDNGKPDTFTVEIVVRVHNGEIKEVQLNNTK	0.158
EEDVSNQVRHAFDLHRSNNPENLEEMFDKNARIRIGDKTIHGREQYSETAEQEIREQKVEYKSIDVKAKNGRVHIRIDFVSNVNGRPKRDSMQQTYEIHNGRISHASIESDS	-0.151
DEERVHQAVRIIKHNDPDKLRKLADPNAKFQVGDREIHGMEEYADIVAQIMEKADKITFTDIQVHNGRLTIEVVINVNGRNIQFQIFLEFHNGKLKHAHIQATSEEVQRQLNSLMG	0.674
DDRQVEELVRIMQRGNFKDLASNLDENVHVKVGNRTYHGREKAETVFNRLQQRIDHYEIIHVQERPNRAQVRFRFRVNGRTVEATVKAQAHNGRIKEMNLQARDEDAQREIDHAID	1.24
DENKEAKHFAQDINDAFQHNDPDHLNRLFDPNARMQIGDKEIRGKEQFKEENRRMVDQVDKVEVHVKEISVHNGRVEFVLIIRENHNGRNTQTSVEVNAEKQNGQIRIRQETEQ	-0.307
DDDKVRESVNNMLHAMQNGDHDRFRKMADENVRIEVGDKEYKGREKAAEHIKEVVDRVDHIQVESVKVHNGRARANLNMVVNGHSARATLNVNANNGRVVVVEMDPDQIRKAES	-0.629
EEEVQHKIKQLLKNNDWTTLADQVDPNARMVVGDKTVTGREQIQTIARRIQERVDHVEFKQLTVQGDHIDVVMVVNINGEHIKMHFIFRVHNGHIKHVEMQATDPRDQKKLKDLLE	1.54
DQDHEQKMMTRVAHAFDNGDDQSLARLMDPNVSVTVGDKSVHGRERVRELVNEWRHRVDHIKLDRVEHQGNKAKFHITVEHNGERDQVDLEIEARNGKVKNVVLHRP	1.26
DEKHYKKVLKRVLDYFMKGNKEQVKKIAKPDVEFHAGKMKIEGTDHLAKYYEKLQRKGVKLEIKEQHVTGDTVEVKYELEVGGTKVTVKATLKVKDDKVDKAEAKNDDDYHKRVKKG	0.117
DEKEQEDFARSFIEAFRTNDPSQIKTLMDEEATVSVGDKTYHGRKAAEDWATQLKEEVDHIDVKDLKVHNGHIEIEVRLKVNGHTRDYLISIQFHNGRVKRMSVSKQ	-0.432
DENKENEQFLRNYSKQLKDGNEEQLKRNFDPDAKVRYGDKDVSGREQIQKRIADEARKVDHYEITVKRVEKRGDHVRVEFDVRRHVNGKEESMDVVVIFVKHNGRMVISTVTID	0.036
DEKKAEELAKKAFKYIENGDREEAQKMLKDNVEYHYANTTYHGKDAAKFVVDVVQKVGVEVKVQEQEVRGNTVRARFQYKNGDTEVETEVEVTYEGDRVKKAEVKLSEEVMKLVHQG	0.566
DDHDRLRKFFETLLKNYQHNNEEHATKMADKDARFDVGDKTVNGNKQNAKEMAERVRESDHYHAKIQSYRVEGDKAHFQFVASVVHNGRERHFKVQMELKLHNGSLKIVRLRNS	0.966

Sequence	protease stability score
DESAQRLFEELLKAEHDGDRDRYQQLIDPNARIQVGDKSVKGRENIKHDVYRKHKEIRFSIQSMNNKVDGDKVKVDAKVVKEHDGRPDHAQITATVRARGDKVDEIRKEERK	-0.245
DKEIKDLARQVLTAEKTGDPEQFKKLFDPNVHVEVGDKTVTGREEASREFKKSQQELRIDMKSVSVTVEGNSVDIEIHAHLKVNGRPIDMHFRIILTFHNGKVHHVQLQVSEDQLRKMSQ	0.668
DEDEKRKAEHLVRDGSFEELKDLMDENAKVRYGDKEFKGREQAQDAMRQMSRAVDSITVKSLDMQGDTVTARAQLTYNGQHYDVVIQMVVNNGRIKQFVVVVRDPKQKRTLENLRQ	0.567
DEEAVKRVEHFMKNIREGNEQKAREYADKNATIHVGDKTVHGREDLERWVRQVKEEQRMDVRSFHATADNGNVDVKVTAEIEHNGQPRHHHYTAQFNISNGKIQSVTVDDHP	-0.099
DEDREKEVVDILRDGNPDDAREMADENVTVRVGNKVIHGREEYHRFIKRMQDQADHRHIDSVHHRPGRVRIQFRAVVDGQKFSAQMTVKVENGRVKSAQLDATDESVKKILEHIFG	1.16
DRERQKKNLKDFVDALTKGDPDQVVKQFDKDARVRVGDKQVEGRDQIREFAKEWSKHVDRFRITEMRVHNGRLDIQAEQHHNGRKRRIQVEVNWHNGQIKNMQWTHG	1.4
DEHAKDVFDTLREARKRGDEDTMKRQVDPNAKAQVGDKTYHGSDEIARRLTEENRESRVEYHTMSVEIQGDHVVVRFRARYEHNGQPSHFHAVEVVKADNGQIVFLVLQETK	0.06
DEEAEKLAREFIKAVQTGDEEELNELMDPNARFRIGNKTFHGMTNAAKEFNDKRREAHIEYHITSIRVSGDHVEVKVEVHVNVNGKPVHNEVTMDFKRHNGRIRDFQVQIDEEDQKKQDK	1.29
DSEAHELADTIMHALKHNNPDQLKEQFDPNVRVDIGNNRYHGREQFATEVIRTLREWRVEYKSFDQRNSGDKVDLRIRFVVNVNGRPHRYSVTVHLNFKDGRVKKMKVEMDPDQERKQTQ	0.914
DEDNMHRLKEFLDNLNQGDEERLVELADEDVKLVYGEKRYHGREELTKTLETQRDQMRVDYKVKSMSVSNGRVHADIEASNTKNGKPKRFKVRVHAEFHNGRLQVYNQQEDK	0.42
DERNKRRFDEFERARKTGDPDRMKELADPNAKLDVGNKTITGMDEIVRQLKHEQDKIEIDIKFDRITVQGNNLRAEYHEEYNVNGKPFHDKVVLEVQFDNGKIRELKLRVDPEKQDERRT	-0.003
DEQNQIKKIADDLETAARTNDPDKLLNMVDPNAKITYGDEEVHGRREAKRWLKEVNDHVDHMHVDIKRVHASGDKFTLRYRLVLVQNGKKDTTRVVATLRRTDGRVQIQSIDSG	0.033
DHRAEEAFRRWEEALKTGDPDQAKEQVDPNARFEYGDESIRGMDNVQKWLRTQMEKQRIDVKVKDVKTRPGHVEISAHVVWEHNGTPNSATFVQQNTATGDDVKHVKVQEHK	-0.27
DEDDVDRVRNLIHALNKGNPDDVNNQADENVRFVIGDKTFHGKETLRTRIEEQKSHSRYQVDSVHAEARNGQVEVHVNMTMTENGQPRKNTYEIQARVHNGRVKDFRMTESR	-0.336
DERVKRLVEQWFRAIEHGDPDQERKYFDPNARVEIGDRELNGREEIAHDLKRRHDEMHLHLKSVTIRVEGDHAEVNVRFQQDHNGKPEQKVQHVVLHFRGDYVRKMEVRDTK	1.15
DEDKEDRVRTWVEAQKTGDPDKAKENADPNVRVEYGDKTIHGMSEIVKHIKREKHESRRTIDSYSVSASGDHITVRIDMHVKHDGQPRRKDYTETIVIRNGKIRHIKRRDDK	0.36
DEKMLQHMEDALRRNDEQRLVELVDEDVKIKIGDRDVHGSERAQKIAETRKERIDSQDFKSMDLSGNKVTVDRVVVVNGVKFRVVVIYELSNGRIKRIEVRVTDEENKRRLQKQLS	0.63
DDNEVETVRELIEQLETGDPDKFKEMVDKDVNINVGNKHVHGREEAVEQIRKEAREISFRIKVDRVEAHNGHVRVDFKFDAEVNGQPRSFRAIMVLEIEDGVVKHIELQMDRNQQQRLEK	1.1
DDDNVRKMNEMFNALETGDEHKLKKQFDPNAHIRIGDQTYHGMDDYARKFRHKRNNMRQSYESYTITNEGDKVTIEATFSRRHNGTPERKKVVVEVDIRGDQAKSATVQDDR	0.032
DEEKNQELLHHWLKQFSHGNTENLRKNVDKDVRVRVGDKVFNGRETAMRHWSEQVKQVDHVQINHVEVDGDSARADVVYVVNGRERRFEREATIKGDKFKEIEYRTN	-0.248
DKELQDTAHKLAKNGDFSRLAELADEDVQIKIGDERVTGREEQKKLVEVQQRRIDHVEVDRVHAQGNKVSVNMTIVVDGESRTVNIDITMHNGRVKEIVYNATSEEARKEMTKWYR	-0.362
DDTVKEQAEKFFTAQNTGNPDQIANLVDPNARFTIGDKEYHGRENFKSWMETVRDKMDVDYQITDLKTDENHADVVAEYTSTHNGQPERRRMRVDMRLSNGRMKEVNIEDRS	-0.503
DEKENKKLATELNQNLQTGDPDKLARLADPNARAQYGETTYHGRSQIKTMWETLSRQVDNVELKHMHVQGNEVEVVLTFNVNGKEYELRITASFKNGRLKDLQIDPDEIQRAEK	0.4
DEEDQKHAESFFRNLINNNPEKLKEMADPNAEFEVGDKTLNGTEDLSKWAQKLKDQARMSIQSLTIRVENGRLSATMTFEVEHNGQPDRMKITAHASITNGKITHFMLRLDPKQYKSWVG	0.493
DEDLDKQAQEFIHAMQEGDPQRLSEQMDPNARFHVGEKNIHGKEEVMRDFQRTVDQAEIEFKEYSVRAEPGRVRIKLHYVDNNDGRPHSKVQDMVIVFHNGKLVVIDVNDSQ	0.236
